Source: article PMC6773860

Columns and labels:
[1] = target: His6-tagged junctional adhesion molecule A (UniProt Q9Y624); experiment: single-virus force spectroscopy (FD-based AFM); virus particles on the AFM tip through a PEG27 linker; His6-JAM-A on an NTA-Ni2+ gold model surface; virus buffer, ~25 °C; after adding 1 mM Neu5Ac; koff of the single bond from a Bell-Evans fit of the DFS plot
[2] = target: His6-tagged JAM-A (junctional adhesion molecule A) (UniProt Q9Y624); experiment: single-virus force spectroscopy (FD-based AFM); virions or ISVPs covalently linked by a PEG27 spacer to the AFM tip; His6-JAM-A immobilised on an NTA-Ni2+ gold surface; virus buffer (150 mM NaCl, 15 mM MgCl2, 10 mM Tris pH 7.4), ~25 °C; single bonds fitted with the Bell-Evans model; no glycan added
[3] = target: human JAM-A on the surface of Lec2-JAM-A cells (human) (UniProt Q9Y624); experiment: single-virus force spectroscopy (FD-based AFM); virions on the AFM tip; living Lec2-JAM-A cells co-cultured with fluorescent Lec2 cells; PeakForce QNM mode, 37 °C, culture medium, 5% CO2; no glycan added
[4] = target: human JAM-A on the surface of Lec2-JAM-A cells (human) (UniProt Q9Y624); experiment: single-virus force spectroscopy (FD-based AFM); as a4, the same area scanned again after adding 1 mM LNnT to the culture medium
[5] = target: human JAM-A on the surface of Lec2-JAM-A cells (human) (UniProt Q9Y624); experiment: single-virus force spectroscopy (FD-based AFM); as a4, the same area scanned again after adding 1 mM Neu5Ac or 1 mM LSTa to the culture medium; also on cells treated before with neuraminidase (40 mUnit/mL, 1 h)
[6] = target: His6-tagged JAM-A (junctional adhesion molecule A) (UniProt Q9Y624); experiment: single-virus force spectroscopy (FD-based AFM); as a1, after injection of 1 mM sialylated glycan (Neu5Ac or LSTa)
[7] = target: His6-tagged junctional adhesion molecule A (UniProt Q9Y624); experiment: single-virus force spectroscopy (FD-based AFM); virus particles on the AFM tip through a PEG27 linker; His6-JAM-A on an NTA-Ni2+ gold model surface; virus buffer, ~25 °C; after adding 1 mM LNnT (no sialic acid); koff of the single bond from a Bell-Evans fit of the DFS plot
[8] = target: His6-tagged junctional adhesion molecule A (UniProt Q9Y624); experiment: single-virus force spectroscopy (FD-based AFM); virus particles on the AFM tip through a PEG27 linker; His6-JAM-A on an NTA-Ni2+ gold model surface; virus buffer, ~25 °C; after adding 1 mM LSTa; koff of the single bond from a Bell-Evans fit of the DFS plot

“reovirus σ1 attachment protein on T3SA+ infectious subvirion particles (from UniProt P03528 1-455) (natural protein)” showed a koff [1] of 0.18 s⁻¹.

Substance “reovirus σ1 attachment protein of mutant strain T3SA− (P204L), on purified virions (from UniProt P03528 1-455) (natural protein)” has a koff [2] of 0.05 s⁻¹, a specific binding force [2] of 20 to 130 pN and a frequency of adhesion events [3] of 4%.

Substance “reovirus σ1 attachment protein of strain T3SA+, on purified virions (from UniProt P03528 1-455) (natural protein)” has a binding frequency after 1 mM LNnT [4] of 3.9%, a binding frequency after 1 mM LSTa [5] of 4.8% and a binding frequency after 1 mM Neu5Ac [5] of 4.9%. It also gave an increase in binding after Neu5Ac against before, neuraminidase-treated cells [5] of 20%, a koff [2] of 0.04 s⁻¹ and a specific binding force [2] of 20 to 130 pN. The overall binding force with 1 mM Neu5Ac or LSTa [6] was < 400 pN, the simultaneous virus-receptor bonds in the presence of α-SA [6] was < 3 and the binding frequency before LNnT [3] was 3.8%. For the same substance, the binding frequency before LSTa [3] was 3.8%, the binding frequency before Neu5Ac [3] was 3.9% and the density of adhesion events [3] was 3.5%. The rupture force [3] was 50 to 400 pN and the simultaneous virus-receptor bonds [3] was < 4.

“reovirus σ1 attachment protein on T3SA- virions (P204L) (from UniProt P03528 1-455)” gave a koff [7] of 0.07 s⁻¹, a koff [1] of 0.08 s⁻¹ and a koff [8] of 0.24 s⁻¹.
